This series concerns the molecule itself. As to the kind of experiment: SEC.

Experimental findings from paper doi:10.1101/2021.09.24.461649 (bioRxiv, 2021) are described below.

B1: EspC (ESX-1 secreted protein C), wild type (natural protein)
chain: MMTENLTVQPERLGVLASHHDNAAVDASSGVEAAAGLGESVAITHGPYCSQFNDTLNVYLTAHNALGSSLHTAGVDLAKSLRIAAKIYSEADEAWRKAIDGLFT
Regarding B1, the “stoichiometry N” value was found to be 6.
